Assay results published in patent US10253076B2, “Peptides and combination of peptides for use in immunotherapy against ovarian cancer and other cancers” (immatics biotechnologies GmbH, priority 2015, dated 2019).

Experiments:
[1] = target: HLA-A*02:01 (Homo sapiens, UniProt P04439, D140Y/D185E/D98H/E176V/E277Q/G131W/G231S/I119V/I121R/I166T/I218V/L300P/L318F/N151K/N90K/P208A/P217A/Q86G/Q94H/R138H/R169H/T345S); experiment: MHC binding assay (UV-ligand exchange, beta2m ELISA, peptide exchange yield); details: binding of HLA-class I restricted peptides to HLA-A*02:01, ranged by peptide exchange yield (UV-ligand exchange, β2m ELISA)
Method in brief: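 Peptide–HLA-A*02:01 complexes made by UV-mediated exchange of a photocleavable peptide with the test peptide. Exchange products diluted 100-fold on streptavidin-coated plates, 1 h at 37°C, then HRP anti-β2m 1 h at 37°C; TMB read at 450 nm to give exchange yield.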

[2] = system: CD8+ T cells; experiment: In vitro immunogenicity: T-cell priming with aAPCs loaded with peptide/MHC and anti-CD28, pMHC multimer readout; assay type: cell-based, human; details: for Wells positive [%]: HLA-A*02 restricted peptides; for wells: percentage of positive wells
Experimental: In an aspect, the peptides are pre-screened for immunogenicity before being included in the warehouse. By way of example, and not limitation, the immunogenicity of the peptides included in the warehouse is determined by a method comprising in vitro T-cell priming through repeated stimulations of CD8+ T cells from healthy donors with artificial antigen presenting cells loaded with peptide/MHC complexes and anti-CD28 antibody.
In order to obtain information regarding the immunogenicity of the TUMAPs of the present invention, the inventors performed investigations using an in vitro T-cell priming assay based on repeated stimulations of CD8+ T cells with artificial antigen presenting cells (aAPCs) loaded with peptide/MHC complexes and anti-CD28 antibody.
In order to perform in vitro stimulations by artificial antigen presenting cells loaded with peptide-MHC complex (pMHC) and anti-CD28 antibody, the inventors first isolated CD8+ T cells from fresh HLA-A*02 leukapheresis products via positive selection using CD8 microbeads (Miltenyi Biotec, Bergisch-Gladbach, Germany) of healthy donors obtained from the University clinics Mannheim, Germany, after informed consent.
PBMCs and isolated CD8+ lymphocytes were incubated in T-cell medium (TCM) until use consisting of RPMI-Glutamax (Invitrogen, Karlsruhe, Germany) supplemented with 10% heat inactivated human AB serum (PAN-Biotech, Aidenbach, Germany), 100 U/ml Penicillin/100 μg/ml Streptomycin (Cambrex, Cologne, Germany), 1 mM sodium pyruvate (CC Pro, Oberdorla, Germany), 20 μg/ml Gentamycin (Cambrex). 2.5 ng/ml IL-7 (PromoCell, Heidelberg, Germany) and 10 U/ml IL-2 (Novartis Pharma, Nürnberg, Germany) were also added to the TCM at this step.
Generation of pMHC/anti-CD28 coated beads, T-cell stimulations and readout was performed in a highly defined in vitro system using four different pMHC molecules per stimulation condition and 8 different pMHC molecules per readout condition.
The purified co-stimulatory mouse IgG2a anti human CD28 Ab 9.3 (Jung et al., 1987) was chemically biotinylated using Sulfo-N-hydroxysuccinimidobiotin as recommended by the manufacturer (Perbio, Bonn, Germany). Beads used were 5.6 μm diameter streptavidin coated polystyrene particles (Bangs Laboratories, Illinois, USA).
pMHC used for positive and negative control stimulations were A*0201/MLA-001 (peptide […] (SEQ ID NO. 664) from modified Melan-A/MART-1) and A*0201/DDX5-001 ([…] from DDX5, SEQ ID NO. 665), respectively.
800.000 beads/200 μl were coated in 96-well plates in the presence of 4×12.5 ng different biotin-pMHC, washed and 600 ng biotin anti-CD28 were added subsequently in a volume of 200 μl. Stimulations were initiated in 96-well plates by co-incubating […] CD8+ T cells with 2×10^5 washed coated beads in 200 μl TCM supplemented with 5 ng/ml IL-12 (PromoCell) for 3 days at 37° C. Half of the medium was then exchanged by fresh TCM supplemented with 80 U/ml IL-2 and incubating was continued for 4 days at 37° C. This stimulation cycle was performed for a total of three times. For the pMHC multimer readout using 8 different pMHC molecules per condition, a two-dimensional combinatorial coding approach was used as previously described (Andersen et al., 2012) with minor modifications encompassing coupling to 5 different fluorochromes. Finally, multimeric analyses were performed by staining the cells with Live/dead near IR dye (Invitrogen, Karlsruhe, Germany), CD8-FITC antibody clone SK1 (BD, Heidelberg, Germany) and fluorescent pMHC multimers. For analysis, a BD LSRII SORP cytometer equipped with appropriate lasers and filters was used. Peptide specific cells were calculated as percentage of total CD8+ cells. Evaluation of multimeric analysis was done using the FlowJo software (Tree Star, Oregon, USA). In vitro priming of specific multimer+ CD8+ lymphocytes was detected by comparing to negative control stimulations. […]

Substance | Peptide exchange [1] | also measured
118 (KLIDNNINV; listed as Homo sapiens) [compound 118] | ″+++″ (≥50% = +++) | Wells positive [%] [2]: ″+″ (<20% = +)
166 (YLNHLEPPV; listed as Homo sapiens) [compound 166] | ″+++″ (≥50% = +++) | Wells positive [%] [2]: ″++++″ (> = 70% = ++++)
662 (KIQEILTQV; listed as Homo sapiens) [compound 662] |  | wells ([2]; HLA class I peptides): + (<20% = +)
283 (ALYIGDGYVIHLA; listed as Homo sapiens) [compound 283] | ″+++″ (≥50% = +++) | wells ([2]; HLA class I peptides): + (<20% = +)
319 (SLEPQIQPV; listed as Homo sapiens) [compound 319] | ″++″ (≥20% = ++) | Wells positive [%] [2]: ″+″ (<20% = +)
460 (AMLEKNYKL; listed as Homo sapiens) [compound 460] | ″++++″ (≥75% = ++++) | Wells positive [%] [2]: ″+″ (<20% = +)
3 (SLASKLTTL; listed as Homo sapiens) [compound 3] | ″++++″ (≥75% = ++++) | Wells positive [%] [2]: ″+″ (<20% = +)
659 (ILFPDIIARA; listed as Homo sapiens) [compound 659] |  | wells ([2]; HLA class I peptides): + (<20% = +)
652 (TLWYRAPEV; listed as Homo sapiens) [compound 652] |  | donors ([2]; HLA class I peptides, percentage of positive donors): ++++ (> = 70% = ++++)
663 (KIQEMQHFL; listed as Homo sapiens) [compound 663] |  | wells ([2]; HLA class I peptides): + (<20% = +)
10 (FLATFPLAAV; listed as Homo sapiens) [compound 10] | ″++++″ (≥75% = ++++) | 
270 (LLLDEEGTFSL; listed as Homo sapiens) [compound 270] | ″++″ (≥20% = ++) | 
543 (GLLPTPITQQASL; listed as Homo sapiens) [compound 543] | ″+++″ (≥50% = +++) | 
515 (LLQELVLFL; listed as Homo sapiens) [compound 515] | ″+++″ (≥50% = +++) | 
403 (KLYDRILRV; listed as Homo sapiens) [compound 403] | ″++″ (≥20% = ++) | 
43 (VLSSLEINI; listed as Homo sapiens) [compound 43] | ″++″ (≥20% = ++) | 
582 (TLCDVILMV; listed as Homo sapiens) [compound 582] | ″+++″ (≥50% = +++) | 
563 (WLLPYNGVTV; listed as Homo sapiens) [compound 563] | ″+++″ (≥50% = +++) | 
82 (FLSSVTYNL; listed as Homo sapiens) [compound 82] | ″+++″ (≥50% = +++) | 
282 (LLADVVPTT; listed as Homo sapiens) [compound 282] | ″+++″ (≥50% = +++) | 
373 (SLLEDKGLAEV; listed as Homo sapiens) [compound 373] | ″++″ (≥20% = ++) | 
501 (LLDPNVKSIFV; listed as Homo sapiens) [compound 501] | ″+++″ (≥50% = +++) | 
454 (KLPPPPPQA; listed as Homo sapiens) [compound 454] | ″+++″ (≥50% = +++) | 
538 (LLLAHIIAL; listed as Homo sapiens) [compound 538] | ″++″ (≥20% = ++) | 
226 (MLYVVPIYL; listed as Homo sapiens) [compound 226] | ″++″ (≥20% = ++) | 
30 (LILDWVPYI; listed as Homo sapiens) [compound 30] | ″+++″ (≥50% = +++) | 
518 (KLNAEVACV; listed as Homo sapiens) [compound 518] | ″+++″ (≥50% = +++) | 

Substance | Peptide exchange [1] | also measured
95 (SVIPQIQKV; listed as Homo sapiens) [compound 95] | ″+++″ (≥50% = +++) | 
151 (KILQQLVTL; listed as Homo sapiens) [compound 151] | ″+++″ (≥50% = +++) | 
367 (SLQNHNHQL; listed as Homo sapiens) [compound 367] | ″+++″ (≥50% = +++) | 
560 (ALWDIETGQQTTT; listed as Homo sapiens) [compound 560] | ″+++″ (≥50% = +++) | 
264 (SLQEQLHSV; listed as Homo sapiens) [compound 264] | ″+++″ (≥50% = +++) | 
162 (YQQAQVPSV; listed as Homo sapiens) [compound 162] | ″+++″ (≥50% = +++) | 
358 (ALDEYTSEL; listed as Homo sapiens) [compound 358] | ″++++″ (≥75% = ++++) | 
433 (AMLNEPWAV; listed as Homo sapiens) [compound 433] | ″+++″ (≥50% = +++) | 
124 (ALYETELADA; listed as Homo sapiens) [compound 124] | ″++″ (≥20% = ++) | 
57 (TLAELQPPVQL; listed as Homo sapiens) [compound 57] | ″+++″ (≥50% = +++) | 
84 (VTFGEKLLGV; listed as Homo sapiens) [compound 84] | ″++″ (≥20% = ++) | 
577 (VMFEDGVLMRL; listed as Homo sapiens) [compound 577] | ″+++″ (≥50% = +++) | 
569 (KLVDRTWTL; listed as Homo sapiens) [compound 569] | ″+++″ (≥50% = +++) | 
516 (AVGPASILKEV; listed as Homo sapiens) [compound 516] | ″++″ (≥20% = ++) | 
131 (FVPPVTVFPSL; listed as Homo sapiens) [compound 131] | ″++″ (≥20% = ++) | 
383 (ALLELENSVTL; listed as Homo sapiens) [compound 383] | ″+++″ (≥50% = +++) | 
29 (KMLGIPISNILMV; listed as Homo sapiens) [compound 29] | ″+++″ (≥50% = +++) | 
510 (KLYSVVSQL; listed as Homo sapiens) [compound 510] | ″++″ (≥20% = ++) | 
466 (VLIANLEKL; listed as Homo sapiens) [compound 466] | ″++++″ (≥75% = ++++) | 
598 (FLFPHSVLV; listed as Homo sapiens) [compound 598] | ″+++″ (≥50% = +++) | 
159 (GLVGNPLPSV; listed as Homo sapiens) [compound 159] | ″++++″ (≥75% = ++++) | 
523 (YQIPRTFTL; listed as Homo sapiens) [compound 523] | ″++″ (≥20% = ++) | 
542 (RVWDISTVSSV; listed as Homo sapiens) [compound 542] | ″+++″ (≥50% = +++) | 
244 (SLFGGTEITI; listed as Homo sapiens) [compound 244] | ″+++″ (≥50% = +++) | 
119 (FLYIGDIVSL; listed as Homo sapiens) [compound 119] | ″++++″ (≥75% = ++++) | 
83 (ILAPTVMMI; listed as Homo sapiens) [compound 83] | ″+++″ (≥50% = +++) | 
255 (VLASYNLTV; listed as Homo sapiens) [compound 255] | ″+++″ (≥50% = +++) | 
